Several values for one entry are separate records, joined by “and”; a condition that tells them apart may be missing. Equal values may be shown once.
B1: full-length mouse NELL2 (ligand, UniProt Q61220 25-819, looked up)
chain: LGVDPSLQIDVLTELELGESTDGVRQVPGLHNGTKAFLFQESPRSIKASTATAERFFQKLRNKHEFTILVTLKQIHLNSGVILSIHHLDHRYLELESSGHRNEIRLHYRSGTHRPHTEVFPYILADAKWHKLSLAFSASHLILHIDCNKIYERVVEMPSTDLPLGTTFWLGQRNNAHGYFKGIMQDVHVLVMPQGFIAQCPDLNRTCPTCNDFHGLVQKIMELQDILSKTSAKLSRAEQRMNRLDQCYCERTCTVKGTTYRESESWTDGCKNCTCLNGTIQCETLVCPAPDCPPKSAPAYVDGKCCKECKSTCQFQGRSYFEGERNTVYSSSGMCVLYECKDQTMKLVENIGCPPLDCPESHQIALSHSCCKVCKGYDFCSEKHTCMENSVCRNLNDRAVCSCRDGFRALREDNAYCEDIDECAEGRHYCRENTMCVNTPGSFMCICKTGYIRIDDYSCTEHDECLTNQHNCDENALCFNTVGGHNCVCKPGYTGNGTTCKAFCKDGCRNGGACIAANVCACPQGFTGPSCETDIDECSEGFVQCDSRANCINLPGWYHCECRDGYHDNGMFAPGGESCEDIDECGTGRHSCTNDTICFNLDGGYDCRCPHGKNCTGDCVHEGKVKHTGQIWVLENDRCSVCSCQTGFVMCRRMVCDCENPTVDLSCCPECDPRLSSQCLHQNGETVYNSGDTWVQDCRQCRCLQGEVDCWPLACPEVECEFSVLPENECCPRCVTDPCQADTIRNDITKTCLDEMNVVRFTGSSWIKHGTECTLCQCKNGHLCCSVDPQCLQEL
modifications: biotin (NHS-Biotin) where captured on the SA chip for SPR
notes: NELL2, mouse; called full-length; the methods say that mature domains were cloned into pAcGP67A; Trimer by MALS; also called mNELL2; mNELL2 ectodomain; source: High Five cells (baculovirus), secreted, purified (Ni-NTA, SEC); not shown: His6, C-terminal, kept
B4: mouse Robo1 ectodomain (domain or fragment, UniProt O89026 20-858, looked up)
chain: SRLRQEDFPPRIVEHPSDLIVSKGEPATLNCKAEGRPTPTIEWYKGGERVETDKDDPRSHRMLLPSGSLFFLRIVHGRKSRPDEGVYICVARNYLGEAVSHNASLEVAILRDDFRQNPSDVMVAVGEPAVMECQPPRGHPEPTISWKKDGSPLDDKDERITIRGGKLMITYTRKSDAGKYVCVGTNMVGERESEVAELTVLERPSFVKRPSNLAVTVDDSAEFKCEARGDPVPTVRWRKDDGELPKSRYEIRDDHTLKIRKVTAGDMGSYTCVAENMVGKAEASATLTVQEPPHFVVKPRDQVVALGRTVTFQCEATGNPQPAIFWRREGSQNLLFSYQPPQSSSRFSVSQTGDLTITNVQRSDVGYYICQTLNVAGSIITKAYLEVTDVIADRPPPVIRQGPVNQTVAVDGTLILSCVATGSPAPTILWRKDGVLVSTQDSRIKQLESGVLQIRYAKLGDTGRYTCTASTPSGEATWSAYIEVQEFGVPVQPPRPTDPNLIPSAPSKPEVTDVSKNTVTLSWQPNLNSGATPTSYIIEAFSHASGSSWQTAAENVKTETFAIKGLKPNAIYLFLVRAANAYGISDPSQISDPVKTQDVPPTSQGVDHKQVQRELGNVVLHLHNPTILSSSSVEVHWTVDQQSQYIQGYKILYRPSGASHGESEWLVFEVRTPTKNSVVIPDLRKGVNYEIKARPFFNEFQGADSEIKFAKTLEEAPSAPPRSVTVSKNDGNGTAILVTWQPPPEDTQNGMVQEYKVWCLGNETKYHINKTVDGSTFSVVIPSLVPGIRYSVEVAASTGAGPGVKSEPQFIQLDSHGNPVSPEDQVSLAQQISDVVRQP
notes: Robo1, mouse, ectodomain; Mostly dimeric, in equilibrium with monomer and higher oligomers; also called mRobo1 ectodomain; mRobo1; source: High Five cells (baculovirus), secreted, purified (Ni-NTA, SEC)

Legend:
[1] = molecular target: the molecule itself; experiment: SEC-MALS; Wyatt HELEOS II coupled to an AKTA FPLC, Superose Increase 6 10/300, HBS; Zimm model
mouse Robo1 ectodomain = molecular target: B4; experiment: SPR; mRobo1 ectodomain on a CM5 chip by random amine coupling (~1,200 R.U.); mNELL2 as analyte; KD from equilibrium responses assuming 50 to 100% active surface; buffer as for the other SPR experiments, 25 °C; conditions: both partners purified
[2] = molecular target: T1, biotinylated human Robo3 FN1–3 (Avi-tagged) (human, UniProt Q96MS0 558-869, biotin on the Avi-tag (BirA)); experiment: SPR; biotinylated hRobo3 FN1–3 captured on an NLC (neutravidin) chip, ProteOn XPR36; NELL EGF constructs as analyte; 25 °C, 10 mM HEPES pH 7.2, 150 mM NaCl, 0.05% Tween-20, 0.1% BSA; equilibrium responses, 1:1 Langmuir model; conditions: both partners purified
T1 construct: Robo3, human, FN domains 1-3; also called biotinylated hRobo3 FN1–3; hRobo3 FN1–3; source: High Five cells (baculovirus), secreted, purified (Ni-NTA, SEC), biotinylated with BirA
T1 sequence (looked up): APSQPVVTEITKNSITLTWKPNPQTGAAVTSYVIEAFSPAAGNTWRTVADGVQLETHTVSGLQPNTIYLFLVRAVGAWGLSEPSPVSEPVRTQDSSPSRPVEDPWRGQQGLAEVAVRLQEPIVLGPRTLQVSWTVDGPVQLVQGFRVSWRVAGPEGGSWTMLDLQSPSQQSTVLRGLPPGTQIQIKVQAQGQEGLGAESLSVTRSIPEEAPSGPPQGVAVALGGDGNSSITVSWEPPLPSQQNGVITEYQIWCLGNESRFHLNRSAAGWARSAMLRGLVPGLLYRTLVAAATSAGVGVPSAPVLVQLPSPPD

full-length mouse NELL2 = molecular target: B1; experiment: SEC; complex of full-length mNELL2 and mRobo3 FN1 purified by SEC; peak fractions quantified in triplicate by western blot against the His6 tag with 1:1 molar standards; conditions: both partners purified
[3] = molecular target: the molecule itself; experiment: AUC; sedimentation velocity, 20 °C, c(s) analysis in SEDFIT; single concentration 2.5 µM mRobo1 and 1.8 µM mRobo3 at 200,000 g, and concentration series (mRobo3 up to 20 µM)
[4] = molecular target: the molecule itself; experiment: SEC-MALS; Superose 6 Increase 10/300 in HBS (10 mM HEPES pH 7.2, 150 mM NaCl), Wyatt HELEOS II
mouse Robo1 FN1–3 = molecular target: T2, mouse Robo1 FN1–3 (mouse, UniProt O89026 524-835, biotin on the N-terminal amine (NHS-Biotin at pH 6.5)); experiment: SPR; mRobo1 FN1–3 biotinylated at the N-terminal amine (NHS-Biotin, pH 6.5), 315 RU captured on a Biacore SA chip; mNELL2 EGF1–6 as analyte; Langmuir isotherm; conditions: both partners purified
T2 construct: Robo1, mouse, FN domains 1-3; also called mRobo1 FN1–3; source: High Five cells (baculovirus), secreted, purified (Ni-NTA, SEC)
T2 sequence (looked up): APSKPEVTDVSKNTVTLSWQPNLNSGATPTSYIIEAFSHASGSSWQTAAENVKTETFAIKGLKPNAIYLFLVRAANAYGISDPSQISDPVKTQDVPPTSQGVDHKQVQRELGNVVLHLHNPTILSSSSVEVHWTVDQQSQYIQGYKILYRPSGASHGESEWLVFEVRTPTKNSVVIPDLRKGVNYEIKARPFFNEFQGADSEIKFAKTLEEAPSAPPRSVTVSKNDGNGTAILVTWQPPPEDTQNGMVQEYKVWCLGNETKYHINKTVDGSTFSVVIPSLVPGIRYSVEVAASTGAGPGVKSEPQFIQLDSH

Binder: B1
- stoichiometry N [1]: 3
- Kd (mouse Robo1 ectodomain): ~350 µM and 190 to 400 µM

B2: human NELL2 EGF domains 1-6 (domain or fragment)
chain: not shown
notes: NELL2, human, EGF domains 1-6; also called hNELL2 EGF1–6; NELL2 EGF1–6; source: High Five cells (baculovirus), secreted, purified (Ni-NTA, SEC)
- Kd [2]: 0.6 µM

B3: mouse Robo3 FN1 domain (domain or fragment, UniProt Q9Z2I4 558-652, looked up)
chain: PPSQPIVTEVTANSITLTWKPNPQSGATATSYVIEAFSQAAGNTWRTVADGVQLETYTISGLQPNTIYLFLVRAVGAWGLSEPSPVSEPVQTQDS
notes: Robo3, mouse, FN1 domain; also called mRobo3 FN1; source: High Five cells (baculovirus), secreted, purified (Ni-NTA, SEC); not shown: His6, C-terminal, kept
- stoichiometry N (full-length mouse NELL2): 3 mRobo3 FN1 per mNELL2 trimer

Binder: B4
- stoichiometry N [3]: 2

B5: mNELL1 (full length) (ligand, mouse, UniProt Q2VWQ2 25-809, looked up)
chain: DPDLQMDIITELDLVNTTLGVTQVAGLHNASKAFLFQDVQREIHSAPHVSEKLIQLFRNKSEFTFLATVQQKPSTSGVILSIRELEHSYFELESSGPREEIRYHYIHGGKPRTEALPYRMADGQWHKVALSVSASHLLLHVDCNRIYERVIDPPETNLPPGSNLWLGQRNQKHGFFKGIIQDGKIIFMPNGFITQCPNLNRTCPTCSDFLSLVQGIMDLQELLAKMTAKLNYAETRLGQLENCHCEKTCQVSGLLYRDQDSWVDGDNCRNCTCKSGAVECRRMSCPPLNCSPDSLPVHISGQCCKVCRPKCIYGGKVLAEGQRILTKTCRECRGGVLVKITEACPPLNCSEKDHILPENQCCRVCRGHNFCAEAPKCGENSECKNWNTKATCECKNGYISVQGNSAYCEDIDECAAKMHYCHANTVCVNLPGLYRCDCIPGYIRVDDFSCTEHDDCGSGQHNCDKNAICTNTVQGHSCTCQPGYVGNGTVCKAFCEEGCRYGGTCVAPNKCVCPSGFTGSHCEKDIDECAEGFVECHNHSRCVNLPGWYHCECRSGFHDDGTYSLSGESCIDIDECALRTHTCWNDSACINLAGGFDCLCPSGPSCSGDCPHEGGLKHNGQVWILREDRCSVCSCKDGKIFCRRTACDCQNPNVDLFCCPECDTRVTSQCLDQSGQKLYRSGDNWTHSCQQCRCLEGEADCWPLACPSLSCEYTAIFEGECCPRCVSDPCLADNIAYDIRKTCLDSSGISRLSGAVWTMAGSPCTTCQCKNGRVCCSVDLVCLEN
notes: mouse NELL1, D25-N809; trimer by MALS; also called NELL1FL (Polyhedrin, mouse); source: High Five cells (baculovirus), purified (Ni-NTA, SEC)
- stoichiometry N [4]: 3

B6: mouse NELL2 EGF1–6, wild type (domain or fragment)
chain: not shown
notes: NELL2, mouse, EGF domains 1-6; also called mNELL2 EGF1–6 WT; mNELL2 EGF1–6; source: High Five cells (baculovirus), secreted, purified (Ni-NTA, SEC)
- Kd (mouse Robo1 FN1–3): 14 µM
